Assay results as given in publication doi:10.1101/495473 (bioRxiv, 2018).

Target: the molecule itself
Experiment: SEC

B1: Plasmodium berghei phosphoglycolate phosphatase (PbPGP) (enzyme, P. berghei, UniProt A0A509AU59 1-322, looked up)
chain: MSLIVSEASQNNYFKDSENSYNSFMKEWKIEKRVNVKDLYQNFEVFFFDCDGVLWRGDTVINGAIEVINKLISDNKKVYFITNNSTKSRDTLLGKFHKLGFTCVKKEHIICTSYAIAKYFHSKEEYKSRKKKIYVIGEKGICDELDALNLVWLGSYKDNDKKVIIQDEGEIQIDNNIGAVVVAIDFNINYYKIQYAQLCINGLDAEFIVSNKDPLANFTSNQQWAGTGSIVASIEQVSFKKPKVLGKPNLFMIESVLKSLNIDLSKVVMIGDRLDTDIFFAQNCKIKSILVSTGVTDANVFLNHNNLNIKPDYFMKSILEFL
Question: How did the “stoichiometry N” value turn out when B1 was run?
Answer: 2
